Assay results as given in the DeepSol protein solubility set.

test: soluble on expression in E. coli; label from the status in PepcDB or PDB records

| Sequence | soluble on expression in E. coli |
| --- | --- |
| MVDVIVIGAGIGGLTAAALLQERGFSTVVFEKNRFPGGSCSSFEKGGYTFDAGASVFYGFCDDDAMGTLNLHSRIFRKLGIAVETIPDPVQIHYHMPGGFDVPAWFDRDRFLESLCRRFPHERTGIRKFYDELESVYEILNSLPAGSLEDVIHLGVVGARHPLKVMALGVKTLFSMGNVARRYISDKELLRFIDLEAYSWAVQDAVSTPLVNAGICLADRHHGGINYPVGGSGTIPAALVKGFEKFGGSIRFGSEVSKVIVKNGSAVGVRLSDGTEVSAKAVVSNATVWDTFSKLVDDPRLRIPDDRFIKAPSWFQIWLGVDGSIVPPGFHMHHIIVDDWSKYDELGGTIYFSAPSVLDPSLAPPGKHALHLFVTAETWQWEQYEYRSQEYKAAKEAFAKSLIARAERLLPGIQDATELMVTATPQSHARYLNRRDGSYGPLLKPGQNILLKPQNRTPIKNLFAAGDSTFPGQGVIAVTYSGVSCASYIARQLGKALDYLLEHHHHHH | not soluble |
| GAMAPATCEKPKFLEYKTCVGDLTVVIAKALDEFKEFCIVNAANEHMTHGSGVAKAIADFCGLDFVEYCEDYVKKHGPQQRLVTPSFVKGIQCVNNVVGPRHGDNNLHEKLVAAYKNVLVDGVVNYVVPVLSLGIFGVDFKMSIDAMREAFEGCTIRVLLFSLSQEHIDYFDVTCK | soluble |
| MHGLKRSLMIRTVCRGKATTAGADLPQSSQEIEVTTPKSENVPAKSANASTVYRPPYYRKPHQHHEPKHMLQEEFVNAGDASGAGVRVFDYYKTAEMVHSMPTIKEKIDFVSPYERPWTRAEKTWRRDWHPTLMATRKAWGIPPTPAHFDTLDYYKYLTKTRVENESLDDFYHGLRPPTADLQTSFQNTLKSMEFGDGINFSDEDTQKLFGSLIDDAMGGIAHNVSRLADHRVAYDVESEAFWVRSGFMFLYDEEEIGTRDVKRRLNNFPKFIGDDRRKLGELAFVHRDKLAAQVRSKEPSAPLHSFDSEDAKLPIFDTNYNFEETLFSPKVYNLWPDQEPLWQCPGYHADSGESHTYGILGVKSLRPLRKRIAHWMGWENENELESSEEAKQMLDDGARSQAIISMFTTLCAQAHTHGFTQYTDITRSFTSQLVLSDGINFWFAIGQLNTIAINVECDGFVNPRTNYIRIDGPYRLFDYCDKNGQYLSVQEEIDAENKVQRKIAPGLNEKVLERVTQMLMKQ | not soluble |
| MDSETLPESEKYNPGPQDFLLKMPGVNAKNCRSLMHHVKNIAELAALSQDELTSILGNAANAKQLYDFIHTSFAEVVSKGKGKK | soluble |
| MGSDKIHHHHHHMLDKSRLSRFKTQIDSQTEIAKFDALAKEWRDPHGKFKHVLSFNQTRLTAIEDQIASHFGRDLTQDIPFDGLSLLDIGCGVGLLCEPLASQGARVTGIDASEHNITLAHRHANSWSIPIEYRHCLAGDLPREQPQYDVILNTEVIEHVEDQAALVASCCDLLKPGGLMVMATLNRTLRSYLIGIIGAEYIMRYLPTGTHDWHHFVTPQELDEMLTPHGLSTKGVEGMAFNPFTRRWKITSNSAVNYLLYASKPIPGVLEA | not soluble |
| MGSDKIHHHHHHMSVFLRNAWYMACWSHEVPEGGFLARRLLDKPWVIWRKADGTPVIMADRCPHRFVPLSRGQRDGDMMRCGYHGLAFSSSGGCVHNPFTDEALPLARVEVLPVVEKHTGLWFWPGDADRADPALIPDFGFLDVERPLHRGHLKMDAGYELVTDNLMDLSHAEFIHRDSFGVNGSLLTCGQHEVVQDEGGAIWNNWTMPDSEPPSWAVAMLPEGARTDQWLHMRWNAPSCLALFLGLARSGTDRKDMVVPPMADPHILTPETVTSTHYFYTHEPTPEAHALLEKAFLEEDHPMLHAQQEAMGSADFWDLRPVVLPSDAGAIRVRRRMMQLRRAEAGLEEEAAA | not soluble |
| MGILAERLDSLSIETSSPDGQITGVFRPTSALSVHFRDGGYRGYTERGLERQLAALVASAWARYWRARQAAVAEATGEPAVPHQPWDTAGRRYRAERDRTRCEGMSAGHRVHVSHTGLRDWNVVVRDGTLSTLDEFGFAAELESGFTAAMRDHRHKLMMLRDKHLPR | not soluble |
| MGSIISRTIPGQGHGNQYYPGVQWDVRDSAWRYVTILDLPFSLVFDTLLLPIDIHHGPYELEHHHHHH | not soluble |
| MTGVRQDAWTKEEDELLANVVLQYIREGGTQLEAFAEVGRRLSRTAAACGFRWNSCVRKQYKEEIEQAKQERKMRKKETPSTKESEGQAKVETAVKSHLSWAEVLAFLQAEEQKARDARRTADENRALKNDMEQLQQMVTKLQMEKESLQKQLAAIQEEYKTLLSIMERARKMVTDSGKPAPNAVAEGVDEG | not soluble |
| GSPALDTGTTEEDRLKIDVIDWLVFDPAQRAEALKQGNAIMRKFLASKKHEAAKEVFVKIPQDSIAEIYNQCEEQGMESPLPAEDDNAIREHLCIRAYLEAHETFNEWFKHMNSVPQKPALIPQPTFTEKVAHEHKEKKYEMDFGIWKGHLDALTADVKEKMYNVLLFVDGGWMVDVREDAKEDHERTHQMVLLRKLCLPMLCFLLHTILHSTGQYQECLQLADMVSSERHKLYLVFSKEELRKLLQKLRESSLMLLDQGLDPLGYEIQLSGRIVTD | soluble |
| MSKAKAPINTDELKQKYGRVYEIRIEGLEYENGEEAEFVFYFTRPKVSDISRFTKELNSKPDMAMKNLTFSCIVPEQEEELRQAAEEFPGLTFNTASRLMEIVGASAATSLKKL | soluble |
| SKSFNYSVSFNLSDYQGTVLKYSNPKGLIYDYYVGKKMGTIWGYTTDHIMTDPAEAKAINDSGVQNKFGGDWVVGDIKYVNLDDDPNINDGNQTLEDHGDLSIIGNDTPRYNFGFGFNADWNGIDFSMFLQGTMKRDLWLEGPVAFGLGGGQWGSNVWKNTLDCWREDGSNPDPWLPRLYLWSTSKNLQKQTRYMDTGAYCRLKNIQLGYSLPGAIINKVGLEKVRIYFSGDNLLTFSGINENFDPEAPWGGAYPISKSISFGVNVTF | not soluble |
| MLSIKGKKWRNWTGNVEGTPHYTMYPESIQDVVEVVGLARKKGKKIRVVGSGHSFTPLVQTEEVLVSLDELKGIVNIDAEKMVAEVWAGTKLYDLGKLLEEKGYAQENLGDIDSQSIAGAISTGTHGTGITFGSLSTQVIEITAVLSNGESIVCSETENVEYWRAFQLSLGMLGIIVKIKLKVIPAYSLVYESEKQSLSTVMNKLEEYKKHRHFEFFVFPYSDEVQVKLTNETTNTGSDLKWHKLKVELLENRMFSLLSKGCKWFPSISKGVSRLSAKAVPNTKIIGPSYEVFATSRTVPFYEMEYSIPSKYMRTVVEEISNLIEKKKYKVHFPIECRYVKGDDIWLSPAYGRDSAYIAVHMYKGMKYAAYFGEVEKIFLKYEGRPHWGKMHTLSYEQLQDIYPEFHSFLQARKSLDELGMFFNPYAEKLFIPLFAGQLEHHHHHH | soluble |
| MAVSNIWQSYSSSNLHWIYPLYTNNCSQNVKSSFTAEILLKRRCNDIQDILNDRMIELLLQGACDPNKQQNYLQGMSPSRKKKTHVKKFLKKQKKSRKPITLEHGCLSGPVTLRFGNFAGIRDLRGTRCPLHGIKHGVHPKPGERCACQQATLFPSPLARFSCDQSAVLGCAASSTRVYDSIADEFSSLYF | not soluble |
| QKTGIYDSLRLKLEIVKFYSPNERDAAFHSGNVEGTVIDYTGAAMQQAGGIDLQLVMRLDGYFRLVMSKDYTGESLETLKGKNLGISRNTVIEYTTDRIINTAGLDESEITKTEVNKIPLRLEMLRSGQIDAAVLPDPFITIAMADG | not soluble |
| LLERVSAEAVTTTLHQVTRERMEDRCRGEYERSFLREFHKWIERVVGWLGKVFLQDGPARPASPEAGNTLRRWRCHVQRFFYRIYASLRIEELFSIVRDFPDSRPAIEDLKYCLERTDQRQQLLVSLKAALETRLLHPGVNTCDIITLYISAIKALRVLDPSMVILEVACEPIRRYLRTREDTVRQIVAGLTGDSDGTGDLAVELSKTDPASLETGQDSEDDSGEPEDWVPDPVDADPGKSSSKRRSSDIISLLVSIYGSKDLFINEYRSLLADRLLHQFSFSPEREIRNVELLKLRFGEAPMHFCEVMLKDMADSRRINANIREEDEKRPAEEQPPFGVYAVILSSEFWPPFKDEKLEVPEDIRAALEAYCKKYEQLKAMRTLSWKHTLGLVTMDVELADRTLSVAVTPVQAVILLYFQDQASWTLEELSKAVKMPVALLRRRMSVWLQQGVLREEPPGTFSVIEEERPQDRDNMVLIDSDDESDSGMASQADQKEEELLLFWTYIQAMLTNLESLSLDRIYNMLRMFVVTGPALAEIDLQELQGYLQKKVRDQQLVYSAGVYRLPKNCS | soluble |
| MTNQQDYTQDNDKLYRYLFQHRAVRGEWVRLNKTFTDTLNTHQYPKAVQDLLGEMMVATNLLTATLKFAGNITVQIQGDGPLRLALVNGNDQQQIRALARVDGNITENMSLHNMIGKGVLVITIAPKEGERYQGVISLDKPTITECLEDYFVRSEQLQTQLIIRTGEYEGKPVAAGMLLQIMPDGSGTPEDFEHLTTLAATVKDEELFGLPAEELLYRLYHEETVNLYPAQDVQFFCGCSAERSSSALLLISDEEIDEILAEHKGRIDMQCECCGTHYFFNKEAIEKLKSTRV | not soluble |
| MYETQVQELSPEEAKRLYDQGVPFFDVREVEEYAQARIPGARLLPLSEFMARYGEIPKDTPVVLYCRTGNRSWQAAAWLSAQGYRVYNLEGGIVRWYRAGLPVDTTPMEAAYRATPYQEVGPEEAKALLEEAFVVDVREAWEYGEGHVPGAVNIPLSTLPQRLAELPKDRPILLVCNSGNRSGVAAEFLVAQGFDGERVYNLEGGTYAWASRGLPLER | soluble |
| GPGSMELALEAMDAAEPPVSAAEKARRLALLRASSAEEARSLVALHDAAALAELRAAIMDSFPDERHDPEMSVHLDQIIWGRCPIRIDVAGAWTDTPPYAILSGGSVINVAVELNGQPPVQVYVRVREDPIIMMHSIDSGEQLSVSSFDEIRTYATMQNPFSIPKAALALCGFLPEFCATEYATLREQLAARFGGHGLEISLFVAIPTGSGLGTSSIVAGTVLRSLAEFCKLPWDNHDVCRRVLLIEQMLTAGGGWQDQYGGLFEGLKLVQCVPGLPCLPTVRWMPDSVYTDPRFAACHLLYYTGITRMAKGILGEIVRDVLLNNGATLQLLREMGGPTTAAMYDAITTGNYKGYARLVHRTWEQKKRLDDGVCNPTVQSIVDIVEPYVWGLTLPGAGGGGYMYMCAKDEACARRIRELLTANPPNGNARFVEMSVSASGLQISRS | not soluble |
| MKIGIIGATGKAGSRILKEALDRGHEVTAIVRNAAKITEENVKVLEKDVFSLTSNDLQAFDVVVNAFGAPAGHDHLHVDAGNVLIEAMKGAPNTKLVVVGGAGSLFVDEEKTTRVFETPGFPEEYLATAQNQGKNLEILQQTNDITWTFISPSALFALGKRTGSYKAGKDNLLVNAKGDSYVSYEDFAVAALDEIENPKHVNERFTVVSEAE | not soluble |
| MLQFYRNLGKSGLRVSCLGLGTWVTFGGQITDEMAEHLMTLAYDNGINLFDTAEVYAAGKAEVVLGNIIKKKGWRRSSLVITTKIFWGGKAETERGLSRKHIIEGLKASLERLQLEYVDVVFANRPDPNTPMEETVRAMTHVINQGMAMYWGTSRWSSMEIMEAYSVARQFNLIPPICEQAEYHMFQREKVEVQLPELFHKIGVGAMTWSPLACGIVSGKYDSGIPPYSRASLKGYQWLKDKILSEEGRRQQAKLKELQAIAERLGCTLPQLAIAWCLRNEGVSSVLLGASNAEQLMENIGAIQVLPKLSSSIVHEIDSILGNKPYS | soluble |
| MFRMPIVTMERVDSFSAAHRLHSEKLSDAENKETFGKCNNSNGHGHNYVWKVKLRGEVDPTSGMVYDLAKLKKEMSLVLDTVDHRNLDKDVEFFKTTVSTSENVAIYMFEKLKSVMSNPSVLYKVTIEETPKNIFTYKGC | not soluble |
